Results: patent publication US20260069687A1

Biological target: Claudin 18 splice variant 2 (CLDN18.2) (human)
Assay: cell-based or functional assay

IMAB362, sequence (VH): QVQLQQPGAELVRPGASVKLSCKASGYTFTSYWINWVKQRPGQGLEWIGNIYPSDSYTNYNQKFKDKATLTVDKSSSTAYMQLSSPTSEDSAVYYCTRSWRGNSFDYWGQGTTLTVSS
IMAB362, sequence (VL): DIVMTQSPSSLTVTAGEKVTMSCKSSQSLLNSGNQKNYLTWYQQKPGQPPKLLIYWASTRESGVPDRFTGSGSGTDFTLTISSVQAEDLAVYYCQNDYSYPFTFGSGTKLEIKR

CDC lysis of CLDN18.2-transfected CHO-K1 cells, 0.5 µg/ml IMAB362 in pooled sera from healthy controls, 80 min: 64.5% | CDC lysis of CLDN18.2-transfected CHO-K1 cells, 0.5 µg/ml fresh IMAB362 in patient pre-infusion serum (20% v/v), 80 min: 71% | CDC lysis of CLDN18.2-transfected CHO-K1 cells, 0.5 µg/ml fresh IMAB362 in pre-infusion serum of patient 0204, 80 min: 93.9% | EC50 of CDC on CLDN18.2 positive CHO-K1 target cells: 0.5 µg/mL | maximal specific lysis of NUGC-4 target cells, ADCC with patient PBMCs (E:T 20:1, 24 h), at ~30 µg/ml IMAB362: 27 to 77%
Substance: IMAB362 (antibody)
EC80-100 of total cytotoxicity (ADCC plus serum components) on NUGC-4 cells, healthy donor PBMCs, E:T 40:1, 25% serum: 200 µg/mL | specific killing of NUGC-4 cells by IMAB362 present in patient serum 28-32 days after administration (healthy donor PBMCs, E:T 40:1): > 48%
